In patent US6660715B2, “Nonaqueous solutions and suspensions of macromolecules for pulmonary delivery” (Massachusetts Institute of Technology, priority 1998, dated 2003):

Test system: M. lysodeikticus
Assay: Lysozyme activity after aerosolization from ethanol (standard assay against dried cells of M. lysodeikticus)
Type: biochemical
Procedure: […] The reservoir containing the ethanol solution was connected via a plastic tube to a collecting test tube placed in an ice booth to facilitate condensation of the solution. The nebulization was started and continued for 5 minutes. As a result, about one mL of the ethanol solution was collected in the test tube (i.e. was aerosolized). No solution was collected with the nebulizer switched off. The lysozyme activity of the nebulized solution was measured using the standard assay against dried calls of M. lysodeikticus. (Shugar, Biochim. Biophys. Acta 8, 302 (1952)).

With “lysozyme: hen egg-white lysozyme (a model protein)” the “specific activity of the nebulized solution relative to the initial enzyme solution” value (0.1 mg/ml solution in ethanol, compressor nebulizer, 5 minutes) was “the same, (±10%) as that of the initial enzyme solution”, the “loss of enzymatic activity upon aerosolization” value (dispersion in ethanol at 1 mg/ml) was “no appreciable loss of enzymatic activity” and the “loss of enzymatic activity upon aerosolization” value (dispersion in ethanol at 10 mg/ml) was “no appreciable loss of enzymatic activity”.
